Reference: PMC7299280

Key:
[1] = target: SARS-CoV-2 spike (S) protein, recombinant (SARS-CoV-2) (UniProt P0DTC2)
[2] = target: SARS-CoV-2 spike (S) protein, recombinant (SARS-CoV-2) (UniProt P0DTC2); remark: listed apart in the source

## CC12.1 (antibody)
[1]
  in vitro IC50 neutralization against pseudovirus; pair blocked: S with ACE2: 0.019 µg/mL

## CC6.33 (antibody)
[2]
  neutralization IC50 of SARS-CoV-2 pseudovirus (complete neutralization): 0.039 µg/mL

## CC12.23 (antibody)
[1]
  IC50 neutralization (pseudovirus): 22 µg/mL
